Data from US20100196390A1 (RINAT NEUROSCIENCE, published 2010).
Numbering of substitutions follows the chain as printed.

B1: 9-D6 (Fab, V domains shown)
VH: QVQLVQSGAEVKKPGASVKVSCKASGYTFTNYVILWVRQAPGQGLEWMGYINPYNDGTKYNEKFKGRVTMTRDTSTSTVYMELSSLRSEDTAVYYCARLLKYRRFSYYAIDVWGQGTTVTVSS
VL: DIQMTQSPSSLSASVGDRVTITCRASENVYSNLAWYQQKPGKAPKLLIYAASNLQSGVPSRFSGSGSGTDFTFTISSLQPEDIATYYCQHFSYSPFTFGQGTKLEIK
notes: Fab
B2: 12-D8 (Fab, V domains shown)
VH: B1 VH with V33D, L35I, D56G, G57R, T58R, K59E, S106R, V112Y
VL: B1 VL with L33T, F71Y, S92W, Y93G
notes: Fab
B3: 11-G2 (Fab, V domains shown)
VH: B1 VH with V33D, L35I, T58R, Y60E, S106R, V112Y
VL: B1 VL with S92W, Y93D
notes: Fab
B4: 10-C7 (Fab, V domains shown)
VH: B1 VH with V33D, L35I, Y50H, D56G, G57R, T58R, K59E, S106R, V112Y
VL: B1 VL with N28S, S92V
notes: Fab
B5: 11-D8 (Fab, V domains shown)
VH: B1 VH with V33D, L35I, D56G, G57R, T58R, K59E, S106R, V112Y
VL: B1 VL with E27T, S92W, Y93G
notes: Fab
B6: 13-F12 (Fab, V domains shown)
VH: B1 VH with V33D, L35I, D56G, G57R, T58R, K59E, S106R, V112Y
VL: B1 VL with S31R, F71Y, S92W, Y93G
notes: Fab
B7: 12-E5 (Fab, V domains shown)
VH: B1 VH with V33D, L35I, D56G, G57R, T58R, K59E, S106R, V112Y
VL: B1 VL with N28P, S92W, Y93G
notes: Fab
B8: 13-C7 (Fab, V domains shown)
VH: B1 VH with V33D, L35I, D56G, G57R, T58R, K59E, S106R, V112Y
VL: B1 VL with N28P, F71Y, S92W
notes: Fab
B9: 13-H3 (Fab, V domains shown)
VH: B1 VH with V33D, L35I, T58R, Y60E, S106R, V112Y
VL: B1 VL with F71Y, S92W, Y93G
notes: Fab
B10: 13-C11 (Fab, V domains shown)
VH: B1 VH with V33D, L35I, D56G, G57R, T58R, K59E, S106R, V112Y
VL: B1 VL with N32H, F71Y, S92W, Y93G
notes: Fab
B11: 10-G2 (Fab, V domains shown)
VH: B1 VH with V33D, L35I, D56G, G57R, T58R, K59E, S106R, V112Y
VL: B1 VL with N28A, S92W, Y93G
notes: Fab
B12: 11-B9 (Fab, V domains shown)
VH: B1 VH with V33D, L35I, D56G, G57R, T58R, K59E, S106R, V112Y
VL: B1 VL with E27T, S31R, S92W, Y93G
notes: Fab
B13: 12-C9 (Fab, V domains shown)
VH: B1 VH with V33D, L35I, D56G, G57R, K59E, S106R, V112Y
VL: B1 VL with E27K, H90Q, S92W
notes: Fab
B14: 13-C12 (Fab, V domains shown)
VH: B1 VH with V33D, L35I, D56G, G57R, T58R, K59E, S106R, V112Y
VL: B1 VL with S31R, F71Y, S92V
notes: Fab
B15: 10-D11 (Fab, V domains shown)
VH: B1 VH with V33D, L35I, D56G, G57R, T58R, K59E, S106R, V112Y
VL: B1 VL with S31R, S92W
notes: Fab
B16: 10-A7 (Fab, V domains shown)
VH: B1 VH with V33D, L35I, D56G, G57R, T58R, K59E, S106R, V112Y
VL: B1 VL with N32H, S92W
notes: Fab
B17: 10-F10 (Fab, V domains shown)
VH: B1 VH with V33D, L35I, T58R, Y60E, S106R, V112Y
VL: B1 VL with S31L, S92W, Y93G
notes: Fab
B18: 11-D7 (Fab, V domains shown)
VH: B1 VH with V33D, L35I, D56G, G57R, T58R, K59E, S106R, V112Y
VL: B1 VL with S31R, S92W, Y93G
notes: Fab
B19: 11-B11 (Fab, V domains shown)
VH: B1 VH with V33D, L35I, D56G, G57R, T58R, K59E, S106R, V112Y
VL: B1 VL with N28P, S92W, Y93G
notes: Fab
B20: 10-A5 (Fab, V domains shown)
VH: B1 VH with V33D, L35I, S106R, V112Y
VL: B1 VL with N28T, S92W, Y93G
notes: Fab
B21: 13-C6 (Fab, V domains shown)
VH: B1 VH with V33D, L35I, D56G, G57R, T58R, K59E, S106R, V112Y
VL: B1 VL with N28P, L33V, S92W, Y93G
notes: Fab
B22: 12-H6 (Fab, V domains shown)
VH: B1 VH with V33D, L35I, D56R, G57R, T58R, K59E, S106R, V112Y
VL: B1 VL with S31R, F71Y, S92W, Y93G
notes: Fab
B23: 13-A12 (Fab, V domains shown)
VH: B1 VH with V33D, L35I, T58R, Y60E, S106R, V112Y
VL: B1 VL with S31R, F71Y, S92W
notes: Fab
B24: 10-B9 (Fab, V domains shown)
VH: B1 VH with V33D, L35I, T58R, Y60E, S106R, V112Y
VL: B1 VL with N28P, S92W, Y93G
notes: Fab
B25: 10-G3 (Fab, V domains shown)
VH: B1 VH with V33D, L35I, D56E, G57R, K59E, S106R, V112Y
VL: B1 VL with S31R, A50I, S92V
notes: Fab
B26: 10-C10 (Fab, V domains shown)
VH: B1 VH with V33D, L35I, D56G, G57R, T58R, K59E, S106R, V112Y
VL: B1 VL with S31R, S92V
notes: Fab
B27: 10-E10 (Fab, V domains shown)
VH: B1 VH with V33D, L35I, T58R, Y60E, S106R, V112Y
VL: B1 VL with S92W, Y93G
notes: Fab
B28: 9-D11 (Fab, V domains shown)
VH: B1 VH with S106K, V112Y
VL: B1 VL with S92W, Y93M
notes: Fab
B29: 11-C6 (Fab, V domains shown)
VH: B1 VH with V33D, L35I, D56G, G57R, T58R, K59E, S106R, V112Y
VL: B1 VL with E27S, F71Y, S92W, Y93G
notes: Fab
B30: 11-G10 (Fab, V domains shown)
VH: B1 VH with V33D, L35I, D56G, G57R, T58R, K59E, S106R, V112Y
VL: B1 VL with S92W, Y93G
notes: Fab
B31: 9-G8 (Fab, V domains shown)
VH: B1 VH with V112Y
VL: B1 VL with S92W, T97W
notes: Fab
B32: 13-C5 (Fab, V domains shown)
VH: B1 VH with V33D, L35I, D56G, G57R, T58R, K59E, S106R, V112Y
VL: B1 VL with N28P, F71Y, S92W, Y93G
notes: Fab
B33: 13-B2 (Fab, V domains shown)
VH: B1 VH with V33D, L35I, D56G, G57R, T58R, K59E, S106R, V112Y
VL: B1 VL with E27K, N28P, F71Y, S92W, Y93G
notes: Fab
B34: 12-A8 (Fab, V domains shown)
VH: B1 VH with V33D, L35I, T58R, Y60E, S106R, V112Y
VL: B1 VL with S92W, Y93G
notes: Fab
B35: 12-B5 (Fab, V domains shown)
VH: B1 VH with V33D, L35I, D56R, G57R, T58I, K59E, S106R, V112Y
VL: B1 VL with N32H, F71Y, S92W, Y93G
notes: Fab
B36: 10-F7 (Fab, V domains shown)
VH: B1 VH with V33D, L35I, D56G, G57R, T58R, K59E, S106R, V112Y
VL: B1 VL with N32H, S92V
notes: Fab
B37: 13-B4 (Fab, V domains shown)
VH: B1 VH with V33D, L35I, T58R, Y60E, S106R, V112Y
VL: B1 VL with S31M, F71Y, S92W
notes: Fab
B38: 9-D9 (Fab, V domains shown)
VH: B1 VH with S106R, V112Y
VL: B1 VL with S92W, T97A
notes: Fab
B39: 11-C7 (Fab, V domains shown)
VH: B1 VH with V33D, L35I, D56R, G57R, T58I, K59E, S106R, V112Y
VL: B1 VL with N32H, S92W, Y93G
notes: Fab
B40: 13-D5 (Fab, V domains shown)
VH: B1 VH with V33D, L35I, D56G, G57R, T58R, K59E, S106R, V112Y
VL: B1 VL with Y30T, F71Y, S92W, Y93G
notes: Fab
B41: 11-F9 (Fab, V domains shown)
VH: B1 VH with V33D, L35I, T58R, Y60E, S106R, V112Y
VL: B1 VL with S31R, S92W
notes: Fab
B42: 13-B3 (Fab, V domains shown)
VH: B1 VH with V33D, L35I, D56G, G57R, T58R, K59E, S106R, V112Y
VL: B1 VL with S31N, F71Y, S92W, Y93G
notes: Fab
B43: 12-E11 (Fab, V domains shown)
VH: B1 VH with V33D, L35I, D56G, G57R, T58R, K59E, S106R, V112Y
VL: B1 VL with N28P, S31N, F71Y, S92W
notes: Fab
B44: 11-G5 (Fab, V domains shown)
VH: B1 VH with V33D, L35I, D56G, G57R, T58R, K59E, S106R, V112Y
VL: B1 VL with S31Y, S92W
notes: Fab
B45: 10-F12 (Fab, V domains shown)
VH: B1 VH with V33D, L35I, D56G, G57R, T58R, K59E, S106R, V112Y
VL: B1 VL with S31R, S92W, Y93G
notes: Fab
B46: 12-E9 (Fab, V domains shown)
VH: B1 VH with V33D, L35I, G66Y, S106R, V112Y
VL: B1 VL with N28S, S31N, S92W, Y93G
notes: Fab
B47: 12-C8 (Fab, V domains shown)
VH: B1 VH with V33D, L35I, D56G, G57R, T58R, K59E, S106R, V112Y
VL: B1 VL with E27K, S92W, Y93G
notes: Fab

target: TrkB (Homo sapiens (Human), UniProt Q16620 32-430); experiment: koff of Fab at 25 C; T1/2=Log2/koff
Sequence (Q16620 32-430 limits assumed): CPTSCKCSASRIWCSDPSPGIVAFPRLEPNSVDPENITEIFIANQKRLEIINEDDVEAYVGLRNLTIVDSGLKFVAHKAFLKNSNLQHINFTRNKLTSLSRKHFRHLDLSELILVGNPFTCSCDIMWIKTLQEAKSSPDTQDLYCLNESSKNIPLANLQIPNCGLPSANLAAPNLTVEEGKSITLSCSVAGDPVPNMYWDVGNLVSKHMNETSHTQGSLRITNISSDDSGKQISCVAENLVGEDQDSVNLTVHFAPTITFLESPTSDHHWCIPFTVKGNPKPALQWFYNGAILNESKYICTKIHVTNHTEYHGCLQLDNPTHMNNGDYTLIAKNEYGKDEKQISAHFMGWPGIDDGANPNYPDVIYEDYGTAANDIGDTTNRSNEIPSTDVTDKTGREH
Outline: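 Monovalent Fab fragments were tested at 25° C by surface plasmon resonance on a Biacore instrument, against TrkB extracellular-domain monomer amine-coupled to the chip at low capacity. Fabs were injected low to high as a 3-fold serial dilution from 100 nM for 84 sec, with a 10 minute dissociation after the top sample. The dissociation half-life was calculated from koff, which was fitted to a Langmuir binding model in BIAevaluation. The formula used was T1/2 = Log 2/koff.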

Row | T1/2 [min] | Binder
1 | 1.45 | B1
2 | 10 | B2
3 | 1.5 | B3
4 | 4.1 | B4
5 | 2.5 | B5
6 | 13 | B6
7 | 7.5 | B7
8 | 13 | B8
9 | 13 | B9
10 | 13 | B10
11 | 5.2 | B11
12 | 4.9 | B12
13 | 0.8 | B13
14 | 13 | B14
15 | 4.2 | B15
16 | 3 | B16
17 | 4.1 | B17
18 | 4.1 | B18
19 | 5.5 | B19
20 | 1 | B20
21 | 4.8 | B21
22 | 12 | B22
23 | 13 | B23
24 | 4 | B24

Row | T1/2 [min] | Binder
25 | 4.8 | B25
26 | 4.3 | B26
27 | 2.7 | B27
28 | 1.55 | B28
29 | 10.8 | B29
30 | 3 | B30
31 | 1.13 | B31
32 | 13 | B32
33 | 13 | B33
34 | 3.3 | B34
35 | 10 | B35
36 | 4.9 | B36
37 | 13 | B37
38 | 1.54 | B38
39 | 4.9 | B39
40 | 13 | B40
41 | 6.2 | B41
42 | 13 | B42
43 | 11 | B43
44 | 5.9 | B44
45 | 5.7 | B45
46 | 3.5 | B46
47 | 8 | B47
